Laboratory results: the supplement of paper PMC7125110
± gives the standard error. Variants at the floor of the assay were thinned out.

B1: glmS ribozyme (parent)
chain: AUAAAAGCGCCAGAACUACAGAAAUGUAGUUGACGAGGAGGAGGUUUAUCGAAUUUUCGGCGGAUGCCUCCAAA

Variants of: B1
Experiment: self-cleavage kobs at 2500 uM GlcN6P; higher = faster cleavage; RNA array
Conditions: with glucosamine-6-phosphate
How it was run: (§1)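 Tiles of sequenced MiSeq chips were imaged over ~14 h at 37 °C. On them, barcoded ribozyme variants had been transcribed in situ by E. coli RNA polymerase and were tracked via a hybridised Cy3 probe while glucosamine-6-phosphate (40 μM to 10 mM) in HEPES/KCl/Mg(OAc)2 buffer flowed in. Per-tile medians, normalised to baseline and to non-cleaving reference variants, were fit to one- or two-exponential decays for kobs, and weighted Michaelis–Menten fits gave kcat and KM.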

Variant | self-cleavage kobs at 2500 uM GlcN6P
G9C G37C A42U G43C C50U C67G C71A | < 1e-05 s⁻¹
C11G G60C G63C | < 1e-05 s⁻¹
C8U C10A A39C | < 1e-05 s⁻¹
C10G C19A A39U U69C | < 1e-05 s⁻¹
C8G A64U C70U | < 1e-05 s⁻¹
C11A U65G C70G C71A | 0.000187 ± 6.3e-05 s⁻¹
C11A A12U G40U | 4.18e-05 ± 2.1e-05 s⁻¹
C10U A36U G40U | < 1e-05 s⁻¹
A6G G51U C58U | < 1e-05 s⁻¹
A6U G7C C8G | < 1e-05 s⁻¹
C8U A14G C50U C71G | < 1e-05 s⁻¹
C8U G29C G60U | < 1e-05 s⁻¹
G7A G13A C68A | < 1e-05 s⁻¹
C11G G13A G44A | < 1e-05 s⁻¹
C8A G29U C68G | < 1e-05 s⁻¹
G7A U49A A52C | < 1e-05 s⁻¹
C11U G43U U47G | < 1e-05 s⁻¹
C11U A64U C68U C71U | < 1e-05 s⁻¹
G9C G40U G51U A52U | < 1e-05 s⁻¹
C8A C58U A64U C67G | < 1e-05 s⁻¹
A6U A14U G29A C34G G63A | < 1e-05 s⁻¹

Variant | self-cleavage kobs at 2500 uM GlcN6P
G7U C11U A12U G38C G43U U54A | < 1e-05 s⁻¹
C11G G29U A48U G51U C71G | 0.000485 ± 0.00016 s⁻¹
G9U G35U G37C G51C | < 1e-05 s⁻¹
A6G U65C C68U | < 1e-05 s⁻¹
A6U C58A C67A | < 1e-05 s⁻¹
G7C A52U U54G C61U | < 1e-05 s⁻¹
G7U A14C C16A | < 1e-05 s⁻¹
C10A A12U G37U G44U C50G A53G C68U | < 1e-05 s⁻¹
G9U U31G G44U C61U | < 1e-05 s⁻¹
C8U C11G G13C | < 1e-05 s⁻¹
G9C A39G C50U C71A | < 1e-05 s⁻¹
G9C G59C G63U | < 1e-05 s⁻¹
A6U A36C C67G | < 1e-05 s⁻¹
G7U C11U G13C A36U U56A | < 1e-05 s⁻¹
C11G A15C U45C C68G | < 1e-05 s⁻¹
C10U G51C C58G | < 1e-05 s⁻¹
C10G G41U G59C G60C | < 1e-05 s⁻¹
C8G C58U C61U G63U C68U | < 1e-05 s⁻¹
C8U U54A C58G | < 1e-05 s⁻¹
C8G C16A G43U G44U G62A | < 1e-05 s⁻¹
A6U A12U U46C C50U | < 1e-05 s⁻¹

Variant | self-cleavage kobs at 2500 uM GlcN6P
C11A A52G C70U | 8.24e-05 ± 3.2e-05 s⁻¹
G9U C16U A33U | < 1e-05 s⁻¹
C8A G37A A42C | < 1e-05 s⁻¹
G7A G13A G40C U47G | < 1e-05 s⁻¹
G9C A48G C67U | < 1e-05 s⁻¹
A6U C34A G44A | < 1e-05 s⁻¹
C11U A15G G37A G60A | < 1e-05 s⁻¹
C11G A33U U47G | < 1e-05 s⁻¹
C8A C10U G32A A48G | < 1e-05 s⁻¹
C10U C16U A33U | 6.87e-05 ± 3.4e-05 s⁻¹
C11U G35C U47G G63A | < 1e-05 s⁻¹
C8G G59C A64G | < 1e-05 s⁻¹
C10A A12U U31G U46C | < 1e-05 s⁻¹
G9U G13U G29C G32C A33G | < 1e-05 s⁻¹
C10A G13U U56C U69G | < 1e-05 s⁻¹
A6U G35U U45A U57A | < 1e-05 s⁻¹
C11A C34A G41A | < 1e-05 s⁻¹
C8G A12C A42U C68U | < 1e-05 s⁻¹
G9C U45G C50U G59U | < 1e-05 s⁻¹
C11A U31A A33G | < 1e-05 s⁻¹
A6G U31C A36G A42U | < 1e-05 s⁻¹

Variant | self-cleavage kobs at 2500 uM GlcN6P
C10A G44U U49G U54C G60U C67U | < 1e-05 s⁻¹
A6G G51C G62A | < 1e-05 s⁻¹
C10A G40U U56A U65C | < 1e-05 s⁻¹
C11A C34A C58U C61G G62A | < 1e-05 s⁻¹
A6U A15U A36C | < 1e-05 s⁻¹
C11G A12C G38U C50U | < 1e-05 s⁻¹
G7U A14C U56C | < 1e-05 s⁻¹
C8G U69G | < 1e-05 s⁻¹
G7C C50U A64C C68A | < 1e-05 s⁻¹
C8A A14G A64U | < 1e-05 s⁻¹
C10U A14G G44U | < 1e-05 s⁻¹
G7U A33C G59U G60U | < 1e-05 s⁻¹
G7C G37A G63U | < 1e-05 s⁻¹
C11U G40U A42U G44A | < 1e-05 s⁻¹
G7C G32U U45C U49C | < 1e-05 s⁻¹
G9C C16G G29U | < 1e-05 s⁻¹
A6U C16G G29U G43C U47G U54C | < 1e-05 s⁻¹
C10A C11A A39C | < 1e-05 s⁻¹
C11U U30C A52G A64U | < 1e-05 s⁻¹

Variants of: B1
Experiment: self-cleavage kobs at 10000 uM GlcN6P; higher = faster cleavage; RNA array
Conditions: with glucosamine-6-phosphate
How it was run: as §1

Variant | self-cleavage kobs at 10000 uM GlcN6P
C11G G60C G63C | < 1e-05 s⁻¹
C11A A12U G40U | 6.34e-05 ± 1.6e-05 s⁻¹
C8A G29U C68G | < 1e-05 s⁻¹
G9C G59C G63U | < 1e-05 s⁻¹
C10U C16U A33U | 3.41e-05 ± 1.4e-05 s⁻¹
